Reference: patent US20150139990A1 (DAINIPPON SUMITOMO PHARMA, published 2015)
Where a chain is given by its changes, count along the chain named. In names and notes the source's numbering stands.

Tests used:
Experiment in all cases: ELISA
[1] = molecular target: T1, c190h human-chicken CD81 chimera (chicken; human)
T1 construct: as m30; not shown: C-terminal V5 and 6xHis tags
T1 chain: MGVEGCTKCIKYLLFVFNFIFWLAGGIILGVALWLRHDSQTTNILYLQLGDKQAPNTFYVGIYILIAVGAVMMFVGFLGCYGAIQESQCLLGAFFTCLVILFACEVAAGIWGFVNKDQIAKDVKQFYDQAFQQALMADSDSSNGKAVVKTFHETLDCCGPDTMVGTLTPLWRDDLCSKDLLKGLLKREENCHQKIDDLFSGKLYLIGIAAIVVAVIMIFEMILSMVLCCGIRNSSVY
Method: (§1) To identify the epitopes to which each of the anti-human CD81 antibodies (002-A07 and 005-001) bind, ELISA assays were performed using human-chicken CD81 chimera constructs listed in Table 6. Each construct was transiently expressed in CHO cells and its cell membrane fraction was solubilized with detergents and immobilized onto a plate.
(§2) As control antibodies, human IgG4 antibody (Acris Antibodies GmbH) and mouse IgG antibody were used. Human-chicken chimera protein was captured via His tag introduced into the C-terminal by adding the membrane fraction (5 μg/100 μL/well) prepared (1) above to Ni NTA His Sorb plate (QIAGEN) in the presence of 1% (w/v) n-Octylglucoside and incubating for 3 hours at 4° C. After washing with TBST (TBS, 0.05% (v/v) Tween 20) three times, an anti-human CD81 antibody or a control antibody (50 μL/well) was added and incubated for 1 hour at room temperature (RT). After washing, 2000 fold-diluted HRP-labeled anti-human IgG4 antibody (Mouse anti-human IgG₄ HRP clone:HP6023 Beckman Coulter) or 1000 fold-diluted HRP-labeled anti-mouse IgG antibody (Invitrogen) (50 μL/well) were added. The plate was incubated for 1 hour at RT and washed with TBST three times. And then, peroxidase activity was determined by TMB One solution (Promega; Code 53025). The reaction was stopped with 2 M H₂SO₄ (50 μL) and absorbance at 450 nm was measured.

[2] = molecular target: T2, h156c human-chicken CD81 chimera (human; chicken)
T2 construct: as m30; not shown: C-terminal V5 and 6xHis tags
T2 chain: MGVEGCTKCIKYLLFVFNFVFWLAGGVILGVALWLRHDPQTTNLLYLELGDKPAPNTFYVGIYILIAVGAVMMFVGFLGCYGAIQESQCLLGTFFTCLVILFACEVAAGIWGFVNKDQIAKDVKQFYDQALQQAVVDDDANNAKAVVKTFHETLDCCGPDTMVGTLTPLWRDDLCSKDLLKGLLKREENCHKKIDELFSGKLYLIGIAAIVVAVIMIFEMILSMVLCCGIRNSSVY
Method: as §1, §2

[3] = molecular target: T3, c138h human-chicken CD81 chimera (chicken; human, UniProt P60033 1-236)
T3 construct: as m30; not shown: C-terminal V5 and 6xHis tags
T3 chain: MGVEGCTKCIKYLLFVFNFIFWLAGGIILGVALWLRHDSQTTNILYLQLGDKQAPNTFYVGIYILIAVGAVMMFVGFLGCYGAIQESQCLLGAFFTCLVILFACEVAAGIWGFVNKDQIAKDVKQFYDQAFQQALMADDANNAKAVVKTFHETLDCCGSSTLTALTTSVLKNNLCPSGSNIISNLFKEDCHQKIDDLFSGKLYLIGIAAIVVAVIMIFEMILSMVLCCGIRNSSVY
Method: as §1, §2

[4] = molecular target: T4, h175c human-chicken CD81 chimera (human; chicken, UniProt P60033 1-236)
T4 construct: as m30; not shown: C-terminal V5 and 6xHis tags
T4 chain: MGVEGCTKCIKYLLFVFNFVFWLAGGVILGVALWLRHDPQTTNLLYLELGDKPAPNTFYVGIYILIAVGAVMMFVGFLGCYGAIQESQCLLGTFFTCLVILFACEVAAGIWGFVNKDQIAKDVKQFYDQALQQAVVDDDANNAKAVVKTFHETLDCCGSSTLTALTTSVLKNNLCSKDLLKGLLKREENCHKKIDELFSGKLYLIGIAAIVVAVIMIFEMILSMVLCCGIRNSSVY
Method: as §1, §2

[5] = molecular target: T5, h190c human-chicken CD81 chimera (human; chicken, UniProt P60033 1-236)
T5 construct: as m30; not shown: C-terminal V5 and 6xHis tags
T5 chain: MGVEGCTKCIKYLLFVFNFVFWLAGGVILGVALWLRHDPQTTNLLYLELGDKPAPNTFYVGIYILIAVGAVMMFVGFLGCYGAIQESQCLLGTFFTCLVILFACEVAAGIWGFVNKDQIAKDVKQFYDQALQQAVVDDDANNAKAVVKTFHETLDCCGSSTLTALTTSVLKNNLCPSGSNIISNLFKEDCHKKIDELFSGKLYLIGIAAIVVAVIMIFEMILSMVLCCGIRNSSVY
Method: as §1, §2

[6] = molecular target: T6, c175h human-chicken CD81 chimera (chicken; human)
T6 construct: as m30; not shown: C-terminal V5 and 6xHis tags
T6 chain: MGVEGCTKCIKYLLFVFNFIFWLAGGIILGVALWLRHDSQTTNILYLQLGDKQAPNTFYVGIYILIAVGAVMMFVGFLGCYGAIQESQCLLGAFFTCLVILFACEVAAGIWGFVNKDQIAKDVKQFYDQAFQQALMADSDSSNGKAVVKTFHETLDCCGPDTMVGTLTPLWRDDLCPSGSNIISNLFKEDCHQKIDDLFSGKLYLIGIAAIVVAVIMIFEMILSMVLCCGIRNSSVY
Method: as §1, §2

[7] = molecular target: T7, c156h human-chicken CD81 chimera (chicken; human, UniProt P60033 1-236)
T7 construct: as m30; not shown: C-terminal V5 and 6xHis tags
T7 chain: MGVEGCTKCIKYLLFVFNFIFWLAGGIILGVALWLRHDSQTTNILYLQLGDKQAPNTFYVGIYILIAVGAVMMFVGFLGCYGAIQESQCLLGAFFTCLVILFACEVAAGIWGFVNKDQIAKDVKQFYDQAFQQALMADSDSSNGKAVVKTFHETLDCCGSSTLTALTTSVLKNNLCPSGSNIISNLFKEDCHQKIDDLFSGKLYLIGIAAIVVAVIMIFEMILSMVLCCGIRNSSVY
Method: as §1, §2

[8] = molecular target: T8, cCD81 (chicken CD81 construct with C-terminal V5 and 6xHis tags) (chicken)
T8 construct: as m30; not shown: C-terminal V5 and 6xHis tags
T8 chain: T1 chain with Q193K, D197E
Method: as §1, §2

absorbance at 450 nm relative to hCD81 [1]: < 10% | absorbance at 450 nm relative to hCD81 [2]: < 10% | absorbance at 450 nm relative to hCD81 [3]: < 10% | binding result [4]: binds | binding result [5]: binds | absorbance at 450 nm relative to hCD81 [6]: < 10% | absorbance at 450 nm relative to hCD81 [7]: < 10% | absorbance at 450 nm relative to hCD81 [8]: < 10%
B1: 002-A07 IgG4 antibody (antibody)
heavy: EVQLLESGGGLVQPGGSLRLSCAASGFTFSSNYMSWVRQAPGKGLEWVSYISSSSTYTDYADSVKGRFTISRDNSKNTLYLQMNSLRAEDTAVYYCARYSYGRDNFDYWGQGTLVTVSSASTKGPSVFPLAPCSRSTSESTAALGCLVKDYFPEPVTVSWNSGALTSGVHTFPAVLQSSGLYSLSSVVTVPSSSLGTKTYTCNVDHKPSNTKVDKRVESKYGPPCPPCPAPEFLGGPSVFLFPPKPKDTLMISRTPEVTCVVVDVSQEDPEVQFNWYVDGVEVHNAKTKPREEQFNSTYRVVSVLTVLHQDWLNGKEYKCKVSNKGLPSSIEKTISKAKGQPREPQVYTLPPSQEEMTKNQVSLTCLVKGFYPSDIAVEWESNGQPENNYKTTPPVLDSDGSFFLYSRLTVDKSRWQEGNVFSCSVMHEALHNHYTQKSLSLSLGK
light: QSVLTQPPSASGTPGQRVTISCTGSTSNIGAGYDTHWYQQLPGTAPKLLIYGNSNRPSGVPDRFSGSKSGTSASLAISGLRSEDEADYYCQSYDTNLSVWVFGGGTKLTVLGQPKAAPSVTLFPPSSEELQANKATLVCLISDFYPGAVTVAWKADSSPVKAGVETTTPSKQSNNKYAASSYLSLTPEQWKSHRSYSCQVTHEGSTVEKTVAPTECS
notes: human IgG4 S228P, lambda light chain
